Values quoted from earlier work in publication PMC5358871.

Target: Bfd (Pseudomonas aeruginosa) (UniProt Q9HY80)
Assay: SPR, ITC

UniProt Q9HY80, sequence (Q9HY80 whole entry): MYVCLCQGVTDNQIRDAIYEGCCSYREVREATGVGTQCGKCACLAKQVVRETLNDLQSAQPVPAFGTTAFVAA

BfrB (from UniProt Q9HY79)
Kd: 3000 nM
